Data reported in US20210361740A1.

How the values were obtained:
[1] = biological target: cMyc-tagged C-terminal TLR2 (cTLR2) recombinant protein, C-terminal TIR domain of TLR2 (640-784 amino acids) (UniProt Q9QUN7); assay: SPR, cTLR2 immobilised, peptide as analyte; equilibrium response versus peptide concentration; mTIDM (mutated) peptide
[2] = biological target: cMyc-tagged C-terminal TLR2 (cTLR2) recombinant protein, C-terminal TIR domain of TLR2 (640-784 amino acids) (UniProt Q9QUN7); assay: thermal shift assay of cTLR2 with mTIDM peptide
[3] = biological target: cMyc-tagged C-terminal TLR2 (cTLR2) recombinant protein, C-terminal TIR domain of TLR2 (640-784 amino acids) (UniProt Q9QUN7); assay: thermal shift assay of cTLR2 with wtTIDM peptide
[4] = biological target: cMyc-tagged C-terminal TLR2 (cTLR2) recombinant protein, C-terminal TIR domain of TLR2 (640-784 amino acids) (UniProt Q9QUN7); assay: SPR, cTLR2 immobilised; reference mTIDM
[5] = biological target: cMyc-tagged C-terminal TLR2 (cTLR2) recombinant protein, C-terminal TIR domain of TLR2 (640-784 amino acids) (UniProt Q9QUN7); assay: SPR, cTLR2 immobilised, peptide as analyte; equilibrium response versus peptide concentration; wtTIDM peptide

cMyc-tagged C-terminal TLR2 (cTLR2) recombinant protein, C-terminal TIR domain of TLR2 (640-784 amino acids), sequence (Q9QUN7 640-784 limits assumed, form in doubt): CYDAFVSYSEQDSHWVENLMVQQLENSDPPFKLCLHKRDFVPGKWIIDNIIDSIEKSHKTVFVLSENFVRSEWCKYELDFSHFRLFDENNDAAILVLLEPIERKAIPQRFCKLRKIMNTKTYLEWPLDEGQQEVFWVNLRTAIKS

| Binder | Kd [1] [µM] | ΔTm (shift of melting temperature) [2] [° C.] | ΔTm (shift of melting temperature) [3] [° C.] | fold stronger affinity than mTIDM [4] [fold] | Kd [5] [µM] |
| --- | --- | --- | --- | --- | --- |
| DRQIKIWFQNRRMKWKKPGWHQD [Mutated (m) TIDM peptide] | 19 | 0.87 | – | – | – |
| DRQIKIWFQNRRMKWKKPGAHQK [Wild type (wt) TIDM peptide (TLR2-interacting domain of MyD88 joined to Antennapedia homeodomain)] | – | – | 4.96 | 2.5 | 8 |
